Earlier results on one substance are cited in publication PMC6322933.

The Kd is the equilibrium constant for the complex coming apart.

The data set concerns the target ZPI (Homo sapiens) (UniProt Q9UK55).
Sequence of UniProt Q9UK55 (Q9UK55 22-444): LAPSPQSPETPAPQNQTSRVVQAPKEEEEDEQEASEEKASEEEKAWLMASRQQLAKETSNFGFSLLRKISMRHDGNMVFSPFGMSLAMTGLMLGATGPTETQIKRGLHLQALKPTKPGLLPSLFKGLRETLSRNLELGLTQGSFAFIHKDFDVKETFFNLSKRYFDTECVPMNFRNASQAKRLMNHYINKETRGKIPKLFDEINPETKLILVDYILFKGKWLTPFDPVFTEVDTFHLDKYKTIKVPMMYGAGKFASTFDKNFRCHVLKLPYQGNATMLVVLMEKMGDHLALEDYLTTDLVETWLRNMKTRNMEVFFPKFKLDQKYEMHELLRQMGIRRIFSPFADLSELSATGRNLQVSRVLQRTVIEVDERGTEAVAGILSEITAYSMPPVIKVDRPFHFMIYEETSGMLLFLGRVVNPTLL

Consider Protein Z (from UniProt P22891), for which the Kd was 0.6 nM.
